Test results: US20220401560A1, “PEPTIDE ENCAPSULATING FERRITIN” (Ajinomoto Co., Inc., priority 2019, published 2022)
No end group written: not given here.

Target: T1, ferritin (FTH) (Homo sapiens, UniProt P02794)
T1 construct: made in house; host or cells: Escherichia coli BL21 (DE3), plasmid pET20-FTH
Assay: Encapsulation of fluorescent dye-modified peptide into FTH, column chromatography with absorbance at 480 nm and LC-MS
Method: Of a 50 mM glycine hydrochloride buffer (pH 2.3) that contains FTH (chemical formula weight: 509,421) at a final concentration of 5 mg/mL and the peptide at a final concentration of 0.5 mM, 0.5 mL was left to stand at room temperature for 15 minutes. Next, 50 μL of a 1 M Tris hydrochloride buffer (pH 9.0) was added for neutralization, and the resulting solution was left to stand at room temperature for 3 hours. After the standing, the resulting solution was centrifuged (at 15,000 rpm for one minute). Then, the supernatant was collected and the volume was increased up to 3 mL with a 10 mM Tris hydrochloride buffer (pH 8). The resulting solution was injected into the HiPrep 26/60 Sephacryl S-300 HR column (GE Healthcare Inc.) equilibrated with a 10 mM Tris-HCl buffer (pH 8.0) to separate and purify 24-mer FTH by size at a flow rate of 1.3 mL/minute. The purified ferritin was analyzed using a HiPrep 16/60 Sephacryl S-300 HR column (GE Healthcare Inc.) equilibrated with a 10 mM Tris-HCl buffer (pH 8.0) at a flow rate of 0.5 mL/minute and confirmed as the absorbance at 480 nm unobservable from FTH only, at the same position as that of a peak of FTH.
The solution containing the FTH was concentrated to 0.25 mL by centrifugal ultrafiltration using Vivaspin 20-100K (GE Healthcare Inc.). […] For the LC-MS analysis, 50 μL of a 1 M glycine hydrochloride buffer (pH 2.3) was added to 50 μL of the sample solution and then the resulting solution was left to stand at room temperature for 15 minutes. To the solution 900 μL of ethanol was added. Next, the resulting solution was stirred vigorously and then centrifuged (at 15,000 rpm for five minutes) to collect its supernatant. The supernatant was analyzed using LCMS-2020 (Shimadzu Corporation) as LC-MS, inertsil (Registered trademark) ODS-3 with a particle diameter of 2 μm and 2.1 mm×50 mm (GL science) as a column. Into the column, 10 μL of the sample was injected, and eluded at a flow rate of 0.2 mL/min for 10 minutes such that a mixing ratio of a solution A (0.1% formic acid/99.9% acetonitrile) and a solution B (50% water/50% acetonitrile) was from 95:5 to 95:5. The concentration of the contained protein was determined using a protein assay CBB solution (Nacalai Tesque, Inc.) in terms of bovine albumin as a standard. The concentration of the encapsulated peptide was determined based on the absorbance at 480 nm of the fluorescent dye FAM to which PKC-F is modified.
First, the construction of FTH encapsulating two kinds of fluorescent dye-modified peptides [5(6)—FAM-[…] (SEQ ID NO: 10), FAM-SV40, chemical formula weight 1,516, and 5(6)—FAM-[…] […] (SEQ ID NO: 11), FAN-Np, chemical formula weight 384] was attempted. 0.5 mL of a 50 mM glycine hydrochloride buffer (pH 2.3) that contains FTH (chemical formula weight 509,421) at a final concentration of 5 mg/mL and a peptide at a final concentration of 0.5 mM, was left to stand at room temperature for 15 minutes. Next, 50 μL of a 1 M Tris hydrochloride buffer (pH 9.0) was added for neutralization, and the resulting solution was left to stand at room temperature for 3 hours. […] The absorbance at […] was confirmed at the same elusion position as that of ferritin 24-mer, for ferritin that was used for the operation to encapsulate FAM-SV40 therein. […] Next, the peptide amount of FAM-SV40 encapsulated in purified ferritin was quantified based on the 480 nm absorbance and by CBB staining with use of ferritin-amount-albumin as a standard.

T1 sequence (P02794 whole entry): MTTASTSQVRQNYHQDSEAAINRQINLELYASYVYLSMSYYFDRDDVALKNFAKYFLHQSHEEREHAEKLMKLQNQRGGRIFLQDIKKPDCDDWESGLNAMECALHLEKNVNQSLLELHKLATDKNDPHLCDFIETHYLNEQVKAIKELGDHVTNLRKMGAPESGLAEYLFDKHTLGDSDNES

With “5(6)-FAM-CGGPKKKRKVG (SEQ ID NO: 10) ({5(6)‑FAM}-CGGPKKKRKVG) [FAM-SV40, fluorescent dye-modified peptide, linear]” the “molecules of peptide encapsulated in one molecule of ferritin on average” value (FTH, from molar ratio) was 2.5 molecules and the “encapsulation of peptide in FTH” value (absorbance at 480 nm at elution position of 24-mer FTH, LC-MS) was “encapsulated in ferritin”.
